Experimental data reported in the supplement of paper PMC5998384.

Key:
HeLa Kyoto [1] = assay: solubility in G1/S (NP-40 vs SDS abundance) (log2 ratio); higher = more soluble; settings: cell cycle stage: G1/S
HeLa Kyoto [2] = assay: thermal stability score vs G1/S (z-score of summed log2 fold changes over temperatures); higher = more thermally stable than in G1/S
HeLa Kyoto [3] = assay: solubility change mitosis vs G1/S (difference of NP-40 vs SDS log2 ratios) (log2 ratio difference); higher = more soluble in mitosis
HeLa Kyoto [4] = assay: melting temperature (median over replicates), in situ; higher = more thermally stable
[5] = cell cycle stage: early G1 (4.5 h after nocodazole release)
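For melting temperature (median over replicates), in situ in this document: HeLa Kyoto cells synchronized by double thymidine or nocodazole block, proteins quantified by TMT10plex mass spectrometry, three independent biological replicates.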
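For solubility change mitosis vs G1/S (difference of NP-40 vs SDS log2 ratios) in this document: synchronized HeLa Kyoto cells (double thymidine block for G1/S, nocodazole release for mitosis), protein amounts in NP-40 versus SDS lysates quantified by mass spectrometry, three biological replicates.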
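For solubility in G1/S (NP-40 vs SDS abundance) in this document: HeLa Kyoto cells arrested at G1/S by double thymidine block, proteins quantified by TMT10plex mass spectrometry in mild NP-40 versus SDS extracts, three biological replicates.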
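For thermal stability score vs G1/S (z-score of summed log2 fold changes over temperatures) in this document: synchronized HeLa Kyoto cells, proteins quantified by TMT10plex mass spectrometry, three biological replicates, mitosis taken 0.5 h after nocodazole release, G1/S directly after double thymidine block.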

MLRMRTAGWARGWCLGCCLLLPLSLSLAAAKQLLRYRLAEEGPADVRIGNVASDLGIVTGSGEVTFSLESGSEYLKIDNLTGELSTSERRIDREKLPQCQMIFDENECFLDFEVSVIGPSQSWVDLFEGQVIVLDINDNTPTFPSPVLTLTVEENRPVGTLYLLPTATDRDFGRNGIERYELLQEPGGGGSGGESRRAGAADSAPYPGGGGNGASGGGSGGSKRRLDASEGGGGTNPGGRSSVFELQVADTPDGEKQPQLIVKGALDREQRDSYELTLRVRDGGDPPRSSQAILRVLITDVNDNSPRFEKSVYEADLAENSAPGTPILQLRAADLDVGVNGQIEYVFGAATESVRRLLRLDETSGWLSVLHRIDREEVNQLRFTVMARDRGQPPKTDKATVVLNIKDENDNVPSIEIRKIGRIPLKDGVANVAEDVLVDTPIALVQVSDRDQGENGVVTCTVVGDVPFQLKPASDTEGDQNKKKYFLHTSTPLDYEATREFNVVIVAVDSGSPSLSSNNSLIVKVGDTNDNPPMFGQSVVEVYFPENNIPGERVATVLATDADSGKNAEIAYSLDSSVMGIFAIDPDSGDILVNTVLDREQTDRYEFKVNAKDKGIPVLQGSTTVIVQVADKNDNDPKFMQDVFTFYVKENLQPNSPVGMVTVMDADKGRNAEMSLYIEENNNIFSIENDTGTIYSTMSFDREHQTTYTFRVKAVDGGDPPRSATATVSLFVMDENDNAPTVTLPKNISYTLLPPSSNVRTVVATVLATDSDDGINADLNYSIVGGNPFKLFEIDPTSGVVSLVGKLTQKHYGLHRLVVQVNDSGQPSQSTTTLVHVFVNESVSNATAIDSQIARSLHIPLTQDIAGDPSYEISKQRLSIVIGVVAGIMTVILIILIVVMARYCRSKNKNGYEAGKKDHEDFFTPQQHDKSKKPKKDKKNKKSKQPLYSSIVTVEASKPNGQRYDSVNEKLSDSPSMGRYRSVNGGPGSPDLARHYKSSSPLPTVQLHPQSPTAGKKHQAVQDLPPANTFVGAGDNISIGSDHCSEYSCQTNNKYSKQMRLHPYITVFG [PCDH7]
solubility in G1/S (log2) (HeLa Kyoto [1]): 0.215 | thermal stability score (HeLa Kyoto [2]; [5]): -1.64 | thermal stability score (HeLa Kyoto [2]; cell cycle stage: mitosis): -1.07 | solubility change mitosis (log2) (HeLa Kyoto [3]): -0.075 | melting temperature (HeLa Kyoto [4]; cell cycle stage: G1/S): 55.1 °C | melting temperature (HeLa Kyoto [4]; cell cycle stage: mitosis): 53.4 °C

MLRPAGLWRLCRRPWAARVPAENLGRREVTSGVSPRGSTSPRTLNIFDRDLKRKQKNWAARQPEPTKFDYLKEEVGSRIADRVYDIPRNFPLALDLGCGRGYIAQYLNKETIGKFFQADIAENALKNSSETEIPTVSVLADEEFLPFKENTFDLVVSSLSLHWVNDLPRALEQIHYILKPDGVFIGAMFGGDTLYELRCSLQLAETEREGGFSPHISPFTAVNDLGHLLGRAGFNTLTVDTDEIQVNYPGMFELMEDLQGMGESNCAWNRKALLHRDTMLAAAAVYREMYRNEDGSVPATYQIYYMIGWKYHESQARPAERGSATVSFGELGKINNLMPPGKKSQ [NDUFAF5]
solubility in G1/S (log2) (HeLa Kyoto [1]): 0.329 | thermal stability score (HeLa Kyoto [2]; [5]): 0.357 | thermal stability score (HeLa Kyoto [2]; cell cycle stage: mitosis): 0.191 | solubility change mitosis (log2) (HeLa Kyoto [3]): -0.0552 | melting temperature (HeLa Kyoto [4]; cell cycle stage: G1/S): 53.5 °C | melting temperature (HeLa Kyoto [4]; cell cycle stage: mitosis): 53.4 °C

MLRRGSQALRRFSTGRVYFKNKLKLALIGQSLFGQEVYSHLRKEGHRVVGVFTVPDKDGKADPLALAAEKDGTPVFKLPKWRVKGKTIKEVAEAYRSVGAELNVLPFCTQFIPMDIIDSPKHGSIIYHPSILPRHRGASAINWTLIMGDKKAGFSVFWADDGLDTGPILLQRSCDVEPNDTVDALYNRFLFPEGIKAMVEAVQLIADGKAPRIPQPEEGATYEGIQKKENAEISWDQSAEVLHNWIRGHDKVPGAWTEINGQMVTFYGSTLLNSSVPPGEPLEIKGAKKPGLVTKNGLVLFGNDGKALTVRNLQFEDGKMIPASQYFSTGETSVVELTAEEVKVAETIKVIWAGILSNVPIIEDSTDFFKSGASSMDVARLVEEIRQKCGGLQLQNEDVYMATKFEGFIQKVVRKLRGEDQEVELVVDYISKEVNEIMVKMPYQCFINGQFTDADDGKTYDTINPTDGSTICKVSYASLADVDKAVAAAKDAFENGEWGRMNARERGRLMYRLADLLEENQEELATIEALDSGAVYTLALKTHIGMSVQTFRYFAGWCDKIQGSTIPINQARPNRNLTFTKKEPLGVCAIIIPWNYPLMMLAWKSAACLAAGNTLVLKPAQVTPLTALKFAELSVKAGFPKGVINIIPGSGGIAGQRLSEHPDIRKLGFTGSTPIGKQIMKSCAVSNLKKVSLELGGKSPLIIFNDCELDKAVRMGMGAVFFNKGENCIAAGRLFVEESIHDEFVTRVVEEIKKMKIGDPLDRSTDHGPQNHKAHLEKLLQYCETGVKEGATLVYGGRQVQRPGFFMEPTVFTDVEDYMYLAKEESFGPIMVISKFQNGDIDGVLQRANSTEYGLASGVFTRDINKAMYVSEKLEAGTVFINTYNKTDVAAPFGGVKQSGFGKDLGEEALNEYLKTKTVTLEY [ALDH1L2]
solubility in G1/S (log2) (HeLa Kyoto [1]): 0.0306 | thermal stability score (HeLa Kyoto [2]; [5]): -0.0085 | thermal stability score (HeLa Kyoto [2]; cell cycle stage: mitosis): -0.149 | solubility change mitosis (log2) (HeLa Kyoto [3]): -0.105 | melting temperature (HeLa Kyoto [4]; cell cycle stage: G1/S): 51.6 °C | melting temperature (HeLa Kyoto [4]; cell cycle stage: mitosis): 51.2 °C

MLRSGPASGPSVPTGRAMPSRRVARPPAAPELGALGSPDLSSLSLAVSRSTDELEIIDEYIKENGFGLDGGQPGPGEGLPRLVSRGAASLSTVTLGPVAPPATPPPWGCPLGRLVSPAPGPGPQPHLVITEQPKQRGMRFRYECEGRSAGSILGESSTEASKTLPAIELRDCGGLREVEVTACLVWKDWPHRVHPHSLVGKDCTDGICRVRLRPHVSPRHSFNNLGIQCVRKKEIEAAIERKIQLGIDPYNAGSLKNHQEVDMNVVRICFQASYRDQQGQMRRMDPVLSEPVYDKKSTNTSELRICRINKESGPCTGGEELYLLCDKVQKEDISVVFSRASWEGRADFSQADVHRQIAIVFKTPPYEDLEIVEPVTVNVFLQRLTDGVCSEPLPFTYLPRDHDSYGVDKKRKRGMPDVLGELNSSDPHGIESKRRKKKPAILDHFLPNHGSGPFLPPSALLPDPDFFSGTVSLPGLEPPGGPDLLDDGFAYDPTAPTLFTMLDLLPPAPPHASAVVCSGGAGAVVGETPGPEPLTLDSYQAPGPGDGGTASLVGSNMFPNHYREAAFGGGLLSPGPEAT [RELB]
solubility in G1/S (log2) (HeLa Kyoto [1]): -0.0253 | thermal stability score (HeLa Kyoto [2]; [5]): 0.0562 | thermal stability score (HeLa Kyoto [2]; cell cycle stage: mitosis): 0.606 | solubility change mitosis (log2) (HeLa Kyoto [3]): -0.12 | melting temperature (HeLa Kyoto [4]; cell cycle stage: mitosis): 50.1 °C

MLSRPKPGESEVDLLHFQSQFLAAGAAPAVQLVKKGNRGGGDANSDRPPLQDHRDVVMLDNLPDLPPALVPSPPKRARPSPGHCLPEDEDPEERLRRHDQHITAVLTKIIERDTSSVAVNLPVPSGVAFPAVFLRSRDTQGKSATSGKRSIFAQEIAARRIAEAKGPSVGEVVPNVGPPEGAVTCETPTPRNQGCQLPGSSHSFQGPNLVTGKGLRDQEAEQEAQTIHEENIARLQAMAPEEILQEQQRLLAQLDPSLVAFLRSHSHTQEQTGETASEEQRPGGPSANVTKEEPLMSAFASEPRKRDKLEPEAPALALPVTPQKEWLHMDTVELEKLHWTQDLPPVRRQQTQERMQARFSLQGELLAPDVDLPTHLGLHHHGEEAERAGYSLQELFHLTRSQVSQQRALALHVLAQVISRAQAGEFGDRLAGSVLSLLLDAGFLFLLRFSLDDRVDGVIATAIRALRALLVAPGDEELLDSTFSWYHGALTFPLMPSQEDKEDEDEDEECPAGKAKRKSPEEESRPPPDLARHDVIKGLLATSLLPRLRYVLEVTYPGPAVVLDILAVLIRLARHSLESATRVLECPRLIETIVREFLPTSWSPVGAGPTPSLYKVPCATAMKLLRVLASAGRNIAARLLSSFDLRSRLCRIIAEAPQELALPPEEAEMLSTEALRLWAVAASYGQGGYLYRELYPVLMRALQVVPRELSTHPPQPLSMQRIASLLTLLTQLTLAAGSTPAETISDSAEASLSATPSLVTWTQVSGLQPLVEPCLRQTLKLLSRPEMWRAVGPVPVACLLFLGAYYQAWSQQPSSCPEDWLQDMQRLSEELLLPLLSQPTLGSLWDSLRHCSLLCNPLSCVPALEAPPSLVSLGCSGGCPRLSLAGSASPFPFLTALLSLLNTLAQIHKGLCGQLAAILAAPGLQNYFLQCVAPGAAPHLTPFSAWALRHEYHLQYLALALAQKAAALQPLPATHAALYHGMALALLSRLLPGSEYLTHELLLSCVFRLEFLPERTSGGPEAADFSDQLSLGSSRVPRCGQGTLLAQACQDLPSIRNCYLTHCSPARASLLASQALHRGELQRVPTLLLPMPTEPLLPTDWPFLPLIRLYHRASDTPSGLSPTDTMGTAMRVLQWVLVLESWRPQALWAVPPAARLARLMCVFLVDSELFRESPVQHLVAALLAQLCQPQVLPNLNLDCRLPGLTSFPDLYANFLDHFEAVSFGDHLFGALVLLPLQRRFSVTLRLALFGEHVGALRALSLPLTQLPVSLECYTVPPEDNLALLQLYFRTLVTGALRPRWCPVLYAVAVAHVNSFIFSQDPQSSDEVKAARRSMLQKTWLLADEGLRQHLLHYKLPNSTLPEGFELYSQLPPLRQHYLQRLTSTVLQNGVSET [RPAP1]
solubility in G1/S (log2) (HeLa Kyoto [1]): -0.1 | thermal stability score (HeLa Kyoto [2]; [5]): 0.47 | thermal stability score (HeLa Kyoto [2]; cell cycle stage: mitosis): 0.88 | solubility change mitosis (log2) (HeLa Kyoto [3]): -0.0998 | melting temperature (HeLa Kyoto [4]; cell cycle stage: G1/S): 52.9 °C | melting temperature (HeLa Kyoto [4]; cell cycle stage: mitosis): 51.7 °C

MLSVASRSGPFAPVLSATSRGVAGALRPLVQATVPATPEQPVLDLKRPFLSRESLSGQAVRRPLVASVGLNVPASVCYSHTDIKVPDFSEYRRLEVLDSTKSSRESSEARKGFSYLVTGVTTVGVAYAAKNAVTQFVSSMSASADVLALAKIEIKLSDIPEGKNMAFKWRGKPLFVRHRTQKEIEQEAAVELSQLRDPQHDLDRVKKPEWVILIGVCTHLGCVPIANAGDFGGYYCPCHGSHYDASGRIRLGPAPLNLEVPTYEFTSDDMVIVG [UQCRFS1]
solubility in G1/S (log2) (HeLa Kyoto [1]): 0.119 | thermal stability score (HeLa Kyoto [2]; [5]): -1.93 | thermal stability score (HeLa Kyoto [2]; cell cycle stage: mitosis): -2.28 | solubility change mitosis (log2) (HeLa Kyoto [3]): -0.113 | melting temperature (HeLa Kyoto [4]; cell cycle stage: G1/S): 55.6 °C | melting temperature (HeLa Kyoto [4]; cell cycle stage: mitosis): 55.5 °C
